{"source": "ChEMBL document CHEMBL4229398", "about": "“Activities of recombinant human bleomycin hydrolase on bleomycins and engineered analogues revealing new opportunities to overcome bleomycin-induced pulmonary toxicity” (Bioorg Med Chem Lett, 2018)", "format_in_all_cases": "ADME", "key": {"Bleomycin hydrolase [1]": {"target": "T1, Bleomycin hydrolase (Homo sapiens, UniProt Q13867)", "T1 sequence (Q13867 whole entry)": "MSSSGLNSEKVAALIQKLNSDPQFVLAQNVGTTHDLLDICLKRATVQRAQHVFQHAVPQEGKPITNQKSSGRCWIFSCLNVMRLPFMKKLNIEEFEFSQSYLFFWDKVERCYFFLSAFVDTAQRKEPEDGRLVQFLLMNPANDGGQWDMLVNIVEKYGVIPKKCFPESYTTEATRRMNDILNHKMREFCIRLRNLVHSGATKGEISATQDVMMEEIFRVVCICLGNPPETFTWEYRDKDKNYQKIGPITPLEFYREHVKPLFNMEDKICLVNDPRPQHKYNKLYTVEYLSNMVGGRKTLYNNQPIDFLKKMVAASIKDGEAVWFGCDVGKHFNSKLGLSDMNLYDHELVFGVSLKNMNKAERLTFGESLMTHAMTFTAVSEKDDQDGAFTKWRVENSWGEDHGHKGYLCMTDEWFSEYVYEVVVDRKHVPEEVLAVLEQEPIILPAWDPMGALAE", "experiment": "Substrate activity at recombinant human N-terminal His6-tagged BLMH expressed in Escherichia coli BL21(DE3) assessed as Kcat to Km ratio measured after 1 hr by HPLC-based Michaelis-Menten plot analysis relative to BLM B2"}, "Bleomycin hydrolase [2]": {"target": "T1, Bleomycin hydrolase", "experiment": "(§1) Substrate activity at recombinant human BLMH expressed in baculovirus infected Sf9 insect cells assessed as Kcat to Km ratio"}, "Bleomycin hydrolase [3]": {"target": "T1, Bleomycin hydrolase", "experiment": "Substrate activity at recombinant human N-terminal His6-tagged BLMH expressed in Escherichia coli BL21(DE3) assessed as Kcat to Km ratio measured after 1 hr by HPLC-based Michaelis-Menten plot analysis"}, "Bleomycin hydrolase [4]": {"target": "T1, Bleomycin hydrolase", "experiment": "(§2) Substrate activity at recombinant human N-terminal His6-tagged BLMH expressed in Escherichia coli BL21(DE3) measured after 1 hr by HPLC-based Michaelis-Menten plot analysis"}, "[5]": {"substrate": "[H][C@]1(O[C@@H]2[C@H](O[C@@H](c3c[nH]cn3)[C@H](NC(=O)c3nc([C@H](CC(N)=O)NC[C@H](N)C(N)=O)nc(N)c3C)C(=O)N[C@H](C)[C@@H](O)[C@H](C)C(=O)N[C@H](C(=O)NCCc3nc(-c4nc(C(=O)NCCC(=N)N)cs4)cs3)[C@@H](C)O)O[C@@H](C)[C@@H](O)[C@@H]2O)O[C@H](CO)[C@@H](O)[C@H](OC(N)=O)[C@@H]1O", "experiment": "as §2"}, "[6]": {"substrate": "[H][C@]1(O[C@@H]2[C@H](O[C@@H](c3c[nH]cn3)[C@H](NC(=O)c3nc([C@H](CC(N)=O)NC[C@H](N)C(N)=O)nc(N)c3C)C(=O)N[C@H](C)[C@@H](O)[C@H](C)C(=O)N[C@H](C(=O)NCCc3nc(-c4nc(C(=O)NCCC(=N)N)cs4)cs3)[C@@H](C)O)O[C@@H](CO)[C@@H](O)[C@@H]2O)O[C@H](CO)[C@@H](O)[C@H](OC(N)=O)[C@@H]1O", "experiment": "as §2"}, "[7]": {"substrate": "Cc1c(N)nc([C@H](CC(N)=O)NC[C@H](N)C(N)=O)nc1C(=O)N[C@H](C(=O)N[C@H](C)[C@@H](O)[C@H](C)C(=O)N[C@H](C(=O)NCCc1nc(-c2nc(C(=O)NCCCCNC(=N)N)cs2)cs1)[C@@H](C)O)[C@@H](O[C@@H]1O[C@@H](CO)[C@@H](O)[C@H](O)[C@@H]1O[C@H]1O[C@H](CO)[C@@H](O)[C@H](OC(N)=O)[C@@H]1O)c1c[nH]cn1", "experiment": "as §2"}, "[8]": {"substrate": "[H][C@]1(O[C@@H]2[C@H](O[C@@H](c3c[nH]cn3)[C@H](NC(=O)c3nc([C@H](CC(N)=O)NC[C@H](N)C(N)=O)nc(N)c3C)C(=O)N[C@H](C)[C@@H](O)[C@H](C)C(=O)N[C@H](C(=O)NCCc3nc(-c4nc(C(=O)NCCC[S+](C)C)cs4)cs3)[C@@H](C)O)O[C@@H](C)[C@@H](O)[C@@H]2O)O[C@H](CO)[C@@H](O)[C@H](OC(N)=O)[C@@H]1O", "experiment": "as §2"}, "[9]": {"substrate": "[H][C@]1(O[C@@H]2[C@H](O[C@@H](c3c[nH]cn3)[C@H](NC(=O)c3nc([C@H](CC(N)=O)NC[C@H](N)C(N)=O)nc(N)c3C)C(=O)N[C@H](C)[C@@H](O)CC(=O)N[C@H](C(=O)NCCc3nc(-c4nc(C(=O)NCCCC(N)CC(=O)NCCCNCCCCN)cs4)cs3)[C@@H](C)O)O[C@@H](C)[C@@H](O)[C@@H]2O)O[C@H](CO)[C@@H](O)[C@H](OC(N)=O)[C@@H]1O", "experiment": "as §2"}, "[10]": {"substrate": "[H][C@]1(O[C@@H]2[C@H](O[C@@H](c3c[nH]cn3)[C@H](NC(=O)c3nc([C@H](CC(N)=O)NC[C@H](N)C(N)=O)nc(N)c3C)C(=O)N[C@H](C)[C@@H](O)CC(=O)N[C@H](C(=O)NCCc3nc(-c4nc(C(=O)NCCCC(N)CC(=O)NCCCNCCCCN)cs4)cs3)[C@@H](C)O)O[C@@H](CO)[C@@H](O)[C@@H]2O)O[C@H](CO)[C@@H](O)[C@H](OC(N)=O)[C@@H]1O", "experiment": "as §2"}, "[11]": {"substrate": "Cc1c(N)nc([C@H](CC(N)=O)NC[C@H](N)C(N)=O)nc1C(=O)N[C@H](C(=O)N[C@H](C)[C@@H](O)[C@H](C)C(=O)N[C@H](C(=O)NCCc1nc(-c2nc(C(=O)NCCCCNC(=N)N)cs2)cs1)[C@@H](C)O)[C@@H](O[C@@H]1O[C@@H](CO)[C@@H](O)[C@H](O)[C@@H]1O[C@H]1O[C@H](CO)[C@@H](O)[C@H](OC(N)=O)[C@@H]1O)c1c[nH]cn1", "experiment": "as §1"}}, "data": [{"molecule": "Cc1c(N)nc([C@H](CC(N)=O)NC[C@H](N)C(N)=O)nc1C(=O)N[C@H](C(=O)N[C@H](C)[C@@H](O)[C@H](C)C(=O)N[C@H](C(=O)NCCc1nc(-c2nc(C(=O)NCCC(=N)N)cs2)cs1)[C@@H](C)O)[C@@H](O[C@@H]1O[C@@H](CO)[C@@H](O)[C@H](O)[C@@H]1O[C@H]1O[C@H](CO)[C@@H](O)[C@H](OC(N)=O)[C@@H]1O)c1c[nH]cn1", "values": [{"measurement": "fold change (FC)", "setting": "Bleomycin hydrolase [1]", "result": 0.19}]}, {"molecule": "Cc1c(N)nc([C@H](CC(N)=O)NC[C@H](N)C(N)=O)nc1C(=O)N[C@H](C(=O)N[C@H](C)[C@@H](O)CC(=O)N[C@H](C(=O)NCCc1nc(-c2nc(C(=O)NCCCC(N)CC(=O)NCCCNCCCCN)cs2)cs1)[C@@H](C)O)[C@@H](O[C@@H]1O[C@@H](C)[C@@H](O)[C@H](O)[C@@H]1O[C@H]1O[C@H](CO)[C@@H](O)[C@H](OC(N)=O)[C@@H]1O)c1c[nH]cn1", "note": "(stereo partly drawn)", "values": [{"measurement": "fold change (FC)", "setting": "Bleomycin hydrolase [1]", "result": 0.06}]}, {"molecule": "Cc1c(N)nc([C@H](CC(N)=O)NC[C@H](N)C(N)=O)nc1C(=O)N[C@H](C(=O)N[C@H](C)[C@@H](O)[C@H](C)C(=O)N[C@H](C(=O)NCCc1nc(-c2nc(C(=O)NCCC[S+](C)C)cs2)cs1)[C@@H](C)O)[C@@H](O[C@@H]1O[C@@H](C)[C@@H](O)[C@H](O)[C@@H]1O[C@H]1O[C@H](CO)[C@@H](O)[C@H](OC(N)=O)[C@@H]1O)c1c[nH]cn1", "values": [{"measurement": "fold change (FC)", "setting": "Bleomycin hydrolase [1]", "result": 0.11}]}, {"molecule": "BLEOMYCIN", "values": [{"measurement": "Kcat/Km", "setting": "Bleomycin hydrolase [2]", "result": 5000, "unit": "M⁻¹ s⁻¹"}, {"measurement": "fold change (FC)", "setting": "Bleomycin hydrolase [1]", "result": 0.12}, {"measurement": "Kcat/Km", "setting": "Bleomycin hydrolase [3]", "result": 6.7, "unit": "×10⁻³ /microM/s"}, {"measurement": "Kcat", "setting": "Bleomycin hydrolase [4]", "result": 4, "unit": "s⁻¹"}, {"measurement": "Km", "setting": "Bleomycin hydrolase [4]", "result": 592, "unit": "µM"}]}, {"molecule": "Cc1c(N)nc([C@H](CC(N)=O)NC[C@H](N)C(N)=O)nc1C(=O)N[C@H](C(=O)N[C@H](C)[C@@H](O)CC(=O)N[C@H](C(=O)NCCc1nc(-c2nc(C(=O)NCCCC(N)CC(=O)NCCCNCCCCN)cs2)cs1)[C@@H](C)O)[C@@H](O[C@@H]1O[C@@H](CO)[C@@H](O)[C@H](O)[C@@H]1O[C@H]1O[C@H](CO)[C@@H](O)[C@H](OC(N)=O)[C@@H]1O)c1c[nH]cn1", "note": "(stereo partly drawn)", "values": [{"measurement": "fold change (FC)", "setting": "Bleomycin hydrolase [1]", "result": 0.06}]}, {"molecule": "Cc1c(N)nc([C@H](CC(N)=O)NC[C@H](N)C(N)=O)nc1C(=O)N[C@H](C(=O)N[C@H](C)[C@@H](O)[C@H](C)C(=O)N[C@H](C(=O)NCCc1nc(-c2nc(C(=O)NCCC(=N)N)cs2)cs1)[C@@H](C)O)[C@@H](O[C@@H]1O[C@@H](C)[C@@H](O)[C@H](O)[C@@H]1O[C@H]1O[C@H](CO)[C@@H](O)[C@H](OC(N)=O)[C@@H]1O)c1c[nH]cn1", "values": [{"measurement": "fold change (FC)", "setting": "Bleomycin hydrolase [1]", "result": 0.28}]}, {"molecule": "Bleomycin hydrolase (Homo sapiens) (protein) MSSSGLNSEKVAALIQKLNSDPQFVLAQNVGTTHDLLDICLKRATVQRAQHVFQHAVPQEGKPITNQKSSGRCWIFSCLNVMRLPFMKKLNIEEFEFSQSYLFFWDKVERCYFFLSAFVDTAQRKEPEDGRLVQFLLMNPANDGGQWDMLVNIVEKYGVIPKKCFPESYTTEATRRMNDILNHKMREFCIRLRNLVHSGATKGEISATQDVMMEEIFRVVCICLGNPPETFTWEYRDKDKNYQKIGPITPLEFYREHVKPLFNMEDKICLVNDPRPQHKYNKLYTVEYLSNMVGGRKTLYNNQPIDFLKKMVAASIKDGEAVWFGCDVGKHFNSKLGLSDMNLYDHELVFGVSLKNMNKAERLTFGESLMTHAMTFTAVSEKDDQDGAFTKWRVENSWGEDHGHKGYLCMTDEWFSEYVYEVVVDRKHVPEEVLAVLEQEPIILPAWDPMGALAE", "values": [{"measurement": "Km", "setting": "[5]", "result": 942, "unit": "µM"}, {"measurement": "kcat", "setting": "[5]", "result": 15, "unit": "s⁻¹"}, {"measurement": "kcat/Km", "setting": "[5]", "result": 16000, "unit": "M⁻¹ s⁻¹"}, {"measurement": "Km", "setting": "[6]", "result": 854, "unit": "µM"}, {"measurement": "kcat", "setting": "[6]", "result": 9.8, "unit": "s⁻¹"}, {"measurement": "kcat/Km", "setting": "[6]", "result": 11000, "unit": "M⁻¹ s⁻¹"}, {"measurement": "Km", "setting": "[7]", "result": 190, "unit": "µM"}, {"measurement": "kcat", "setting": "[7]", "result": 11, "unit": "s⁻¹"}, {"measurement": "Km", "setting": "[8]", "result": 805, "unit": "µM"}, {"measurement": "kcat", "setting": "[8]", "result": 4.9, "unit": "s⁻¹"}, {"measurement": "kcat/Km", "setting": "[8]", "result": 6100, "unit": "M⁻¹ s⁻¹"}, {"measurement": "Km", "setting": "[9]", "result": 720, "unit": "µM"}, {"measurement": "kcat", "setting": "[9]", "result": 2.5, "unit": "s⁻¹"}, {"measurement": "kcat/Km", "setting": "[9]", "result": 3500, "unit": "M⁻¹ s⁻¹"}, {"measurement": "Km", "setting": "[10]", "result": 743, "unit": "µM"}, {"measurement": "kcat", "setting": "[10]", "result": 2.4, "unit": "s⁻¹"}, {"measurement": "kcat/Km", "setting": "[10]", "result": 3200, "unit": "M⁻¹ s⁻¹"}, {"measurement": "kcat/Km", "setting": "[11]", "result": 12000, "unit": "M⁻¹ s⁻¹"}]}]}
